Assay results: patent publication US20240294593A1 (Genentech, published 2024)

Columns and labels:
human PD-1-His [1] = biological target: T1, human PD-1-His (human, UniProt Q15116 25-167, limits assumed); assay: Octet (BLI), AHC capture of the bivalent mAb, PD-1 in solution
T1 construct: Antigen of the Octet assays; not shown: His tag

human PD-1-His [2] = biological target: T1, human PD-1-His; assay: Octet (BLI), AHC biosensors capture the bivalent mAb, dipped into multiple concentrations of PD-1; KDapp per legend

T1 sequence (Q15116 25-167 limits assumed): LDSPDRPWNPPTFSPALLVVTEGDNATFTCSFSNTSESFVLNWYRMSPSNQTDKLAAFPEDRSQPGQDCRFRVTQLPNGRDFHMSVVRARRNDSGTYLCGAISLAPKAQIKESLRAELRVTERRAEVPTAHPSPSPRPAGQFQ

Binder | koff (human PD-1-His [1]) [s⁻¹] | kon (human PD-1-His [1]) [M⁻¹ s⁻¹] | Kd (human PD-1-His [2]) [nM]
H1.189_L1.1 (XENP32805) (antibody, human IgG1, kappa, V domains shown, VH substitution L110R/W112F/S113T (Xencor #); L98R/W100F/S100aT (Kabat); also called mAb C[PD1]_H1.189_L1.1_IgG1_PVA_/S267K) VH: EVQLVESGGGLVQPGGSLRLSCAASGFTFSSFGMHWVRQAPGKGLEWVSYISSGSSIIYYADSVKGRFTISRDNAKNSLYLQMNSLRAEDTAVYYCARGGRRVFTPDYWGQGTLVTVSS VL: DIVMTQSPDSLAVSLGERATINCKSSQSLLHSGNQKNYLTWYQQKPGQPPKLLIYWASTRESGVPDRFTGSGSGTDFTLTISSLQAEDVAVYYCQNDYSYPFTFGSGTKLEIKR | 0.00199 | 83800 | 23.7
H1.190_L1.1 (XENP32806) (antibody, human IgG1, kappa, V domains shown, VH substitution R109A/W112F (Xencor #); R97A/W100F (Kabat); also called mAb C[PD1]_H1.190_L1.1_IgG1_PVA_/S267K) VH: EVQLVESGGGLVQPGGSLRLSCAASGFTFSSFGMHWVRQAPGKGLEWVSYISSGSSIIYYADSVKGRFTISRDNAKNSLYLQMNSLRAEDTAVYYCARGGALVFSPDYWGQGTLVTVSS VL: DIVMTQSPDSLAVSLGERATINCKSSQSLLHSGNQKNYLTWYQQKPGQPPKLLIYWASTRESGVPDRFTGSGSGTDFTLTISSLQAEDVAVYYCQNDYSYPFTFGSGTKLEIKR | 0.00271 | 191000 | 14.2
H1.191_L1.1 (XENP32807) (antibody, human IgG1, kappa, V domains shown, VH substitution V111T/W112F (Xencor #); V99T/W100F (Kabat); also called mAb C[PD1]_H1.191_L1.1_IgG1_PVA_/S267K) VH: EVQLVESGGGLVQPGGSLRLSCAASGFTFSSFGMHWVRQAPGKGLEWVSYISSGSSIIYYADSVKGRFTISRDNAKNSLYLQMNSLRAEDTAVYYCARGGRLTFSPDYWGQGTLVTVSS VL: DIVMTQSPDSLAVSLGERATINCKSSQSLLHSGNQKNYLTWYQQKPGQPPKLLIYWASTRESGVPDRFTGSGSGTDFTLTISSLQAEDVAVYYCQNDYSYPFTFGSGTKLEIKR | 0.00382 | 106000 | 36
H1.192_L1.1 (XENP32808) (antibody, human IgG1, kappa, V domains shown, VH substitution V111L/W112F/S113A (Xencor #); V99L/W100F/S100aA (Kabat); also called mAb C[PD1]_H1.192_L1.1_IgG1_PVA_/S267K) VH: EVQLVESGGGLVQPGGSLRLSCAASGFTFSSFGMHWVRQAPGKGLEWVSYISSGSSIIYYADSVKGRFTISRDNAKNSLYLQMNSLRAEDTAVYYCARGGRLLFAPDYWGQGTLVTVSS VL: DIVMTQSPDSLAVSLGERATINCKSSQSLLHSGNQKNYLTWYQQKPGQPPKLLIYWASTRESGVPDRFTGSGSGTDFTLTISSLQAEDVAVYYCQNDYSYPFTFGSGTKLEIKR | 0.00317 | 88500 | 35.8
H1.193_L1.1 (XENP32809) (antibody, human IgG1, kappa, V domains shown, VH substitution L110Q/V111L/W112F (Xencor #); L98Q/V99L/W100F (Kabat); also called mAb C[PD1]_H1.193_L1.1_IgG1_PVA_/S267K) VH: EVQLVESGGGLVQPGGSLRLSCAASGFTFSSFGMHWVRQAPGKGLEWVSYISSGSSIIYYADSVKGRFTISRDNAKNSLYLQMNSLRAEDTAVYYCARGGRQLFSPDYWGQGTLVTVSS VL: DIVMTQSPDSLAVSLGERATINCKSSQSLLHSGNQKNYLTWYQQKPGQPPKLLIYWASTRESGVPDRFTGSGSGTDFTLTISSLQAEDVAVYYCQNDYSYPFTFGSGTKLEIKR | 0.00391 | 116000 | 33.8
H1.194_L1.1 (XENP32810) (antibody, human IgG1, kappa, V domains shown, VH substitution R109Q/W112F (Xencor #); R97Q/W100F (Kabat); also called mAb C[PD1]_H1.194_L1.1_IgG1_PVA_/S267K) VH: EVQLVESGGGLVQPGGSLRLSCAASGFTFSSFGMHWVRQAPGKGLEWVSYISSGSSIIYYADSVKGRFTISRDNAKNSLYLQMNSLRAEDTAVYYCARGGQLVFSPDYWGQGTLVTVSS VL: DIVMTQSPDSLAVSLGERATINCKSSQSLLHSGNQKNYLTWYQQKPGQPPKLLIYWASTRESGVPDRFTGSGSGTDFTLTISSLQAEDVAVYYCQNDYSYPFTFGSGTKLEIKR | 0.00395 | 166000 | 23.7
H1.195_L1.1 (XENP32811) (antibody, human IgG1, kappa, V domains shown, VH substitution L110Q/W112F (Xencor #); L98Q/W100F (Kabat); also called mAb C[PD1]_H1.195_L1.1_IgG1_PVA_/S267K) VH: EVQLVESGGGLVQPGGSLRLSCAASGFTFSSFGMHWVRQAPGKGLEWVSYISSGSSIIYYADSVKGRFTISRDNAKNSLYLQMNSLRAEDTAVYYCARGGRQVFSPDYWGQGTLVTVSS VL: DIVMTQSPDSLAVSLGERATINCKSSQSLLHSGNQKNYLTWYQQKPGQPPKLLIYWASTRESGVPDRFTGSGSGTDFTLTISSLQAEDVAVYYCQNDYSYPFTFGSGTKLEIKR | 0.00436 | 104000 | 41.9
H1.196_L1.1 (XENP32812) (antibody, human IgG1, kappa, V domains shown, VH substitution V111F/W112F (Xencor #); V99F/W100F (Kabat); also called mAb C[PD1]_H1.196_L1.1_IgG1_PVA_/S267K) VH: EVQLVESGGGLVQPGGSLRLSCAASGFTFSSFGMHWVRQAPGKGLEWVSYISSGSSIIYYADSVKGRFTISRDNAKNSLYLQMNSLRAEDTAVYYCARGGRLFFSPDYWGQGTLVTVSS VL: DIVMTQSPDSLAVSLGERATINCKSSQSLLHSGNQKNYLTWYQQKPGQPPKLLIYWASTRESGVPDRFTGSGSGTDFTLTISSLQAEDVAVYYCQNDYSYPFTFGSGTKLEIKR | 0.00475 | 106000 | 44.8
H1.197_L1.1 (XENP32813) (antibody, human IgG1, kappa, V domains shown, VH substitution V111L/W112F (Xencor #); V99L/W100F (Kabat); also called mAb C[PD1]_H1.197_L1.1_IgG1_PVA_/S267K) VH: EVQLVESGGGLVQPGGSLRLSCAASGFTFSSFGMHWVRQAPGKGLEWVSYISSGSSIIYYADSVKGRFTISRDNAKNSLYLQMNSLRAEDTAVYYCARGGRLLFSPDYWGQGTLVTVSS VL: DIVMTQSPDSLAVSLGERATINCKSSQSLLHSGNQKNYLTWYQQKPGQPPKLLIYWASTRESGVPDRFTGSGSGTDFTLTISSLQAEDVAVYYCQNDYSYPFTFGSGTKLEIKR | 0.00436 | 123000 | 35.4
